Values of other authors in article PMC6104694.
Read-outs that look alike come from different tables or passages of the source.

Columns and labels:
[1] = target: presenilin-1 C-terminal fragment 23 amino acid CTF (Homo sapiens) (UniProt P49768)
[2] = target: presenilin-1 C-terminal fragment 23 amino acid CTF (Homo sapiens) (UniProt P49768); remark: listed apart in the source

Chain of KChIP3 (calsenilin) (Q9Y2W7 whole entry): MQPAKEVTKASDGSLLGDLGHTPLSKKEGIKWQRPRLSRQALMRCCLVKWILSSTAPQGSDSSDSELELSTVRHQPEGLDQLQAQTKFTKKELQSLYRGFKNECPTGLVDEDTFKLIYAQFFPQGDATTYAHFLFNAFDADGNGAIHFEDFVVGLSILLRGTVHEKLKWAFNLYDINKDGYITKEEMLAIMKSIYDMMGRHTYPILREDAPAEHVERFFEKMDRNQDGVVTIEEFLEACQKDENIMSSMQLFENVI

KChIP3 (calsenilin) (from UniProt Q9Y2W7)
Kd [1]: 0.6 µM | Kd [2]: 183 µM
